Measurements reported in article PMC3743950.

Columns and labels:
[1] = target: DrP5CDHR102A (Deinococcus radiodurans); assay: SAXS + other: DLS
[2] = target: TtP5CDHK104A (Thermus thermophilus HB27); assay: DLS
[3] = target: TtP5CDHR100A (Thermus thermophilus HB27); assay: SAXS + other: DLS
[4] = target: TtP5CDHR100A/K104A/R111A (Thermus thermophilus HB27); assay: DLS
[5] = target: TtP5CDHR111A (Thermus thermophilus HB27); assay: SAXS + other: DLS
[6] = target: TtP5CDHR153A (Thermus thermophilus HB27); assay: DLS
[7] = target: Δ1-pyrroline-5-carboxylate dehydrogenase from Bacillus halodurans (Bacillus halodurans); assay: SAXS + other: DLS
[8] = target: Δ1-pyrroline-5-carboxylate dehydrogenase from Bacillus licheniformis (Bacillus licheniformis); assay: DLS
[9] = target: Δ1-pyrroline-5-carboxylate dehydrogenase from Deinococcus radiodurans (Deinococcus radiodurans); assay: SAXS + other: DLS
[10] = target: Δ1-pyrroline-5-carboxylate dehydrogenase from Thermus thermophilus (Thermus thermophilus HB27); assay: SAXS + other: DLS

DrP5CDHR102A (enzyme)
stoichiometry N [1]: 2

TtP5CDHK104A (enzyme)
stoichiometry N [2]: 6

TtP5CDHR100A (enzyme)
stoichiometry N [3]: 2

TtP5CDHR100A/K104A/R111A (enzyme)
stoichiometry N [4]: 2

TtP5CDHR111A (enzyme)
stoichiometry N [5]: 6

TtP5CDHR153A (enzyme)
stoichiometry N [6]: 6

Δ1-pyrroline-5-carboxylate dehydrogenase from Bacillus halodurans (enzyme)
stoichiometry N [7]: 2

Δ1-pyrroline-5-carboxylate dehydrogenase from Bacillus licheniformis (enzyme)
stoichiometry N [8]: 2

Δ1-pyrroline-5-carboxylate dehydrogenase from Deinococcus radiodurans (enzyme)
stoichiometry N [9]: 6

Δ1-pyrroline-5-carboxylate dehydrogenase from Thermus thermophilus (enzyme)
stoichiometry N [10]: 6
